Several values for one entry are separate records, joined by “and”; a condition that tells them apart may be missing. Identical values can stand only once.
Conditions: whole UniProt chain shown; for Tm / unfolding enthalpy (van 't Hoff) / unfolding enthalpy (calorimetric) / heat capacity change of unfolding: Thermal
[1] = Aquifex aeolicus (strain VF5), pH 7, 20 °C, GdnHCl, Fluorescence, Sodium phosphate sodium chloride 25 mM 100 mM
[2] = Bos taurus, pH 5, CD, Tris-acetate 0.01 M, reversible: yes
[3] = Bos taurus, pH 8.4, CD, Tris-acetate 0.01 M, reversible: no
[4] = Bacillus amyloliquefaciens, pH 6, 25 °C, GdnHCl, Fluorescence, MES 50 mM, CaCl2 5 mM, reversible: no
[5] = Aliivibrio salmonicida (strain LFI1238), pH 8, DSC, HEPES, MgCl2 NaCl 5 mM 0.175, reversible: no
[6] = Aliivibrio salmonicida (strain LFI1238), pH 8, DSC, HEPES, MgCl2 NaCl 5 mM 1, reversible: no
[7] = Aliivibrio salmonicida (strain LFI1238), pH 8, DSC, Tris-HCl 50mM, NaCl 0.175 M
[8] = Aliivibrio salmonicida (strain LFI1238), pH 8, DSC, Tris-HCl 50mM, NaCl 1 M
[9] = Bacillus amyloliquefaciens, pH 7, 25 °C, GdnHCl, CD, phosphate 20 mM
[10] = Bacillus amyloliquefaciens, pH 8, 25 °C, Urea, Fluorescence, Tris-HCl 50 mM, reversible: yes
[11] = Bacillus amyloliquefaciens, pH 8, CD, Sodium phosphate 2 mM, reversible: yes
[12] = Bacillus amyloliquefaciens, pH 8, DSC, Sodium phosphate 10 mM, reversible: yes
[13] = Bacillus amyloliquefaciens, pH 9.5, DSC, Sodium phosphate 10 mM, reversible: yes

B1: Cytidine deaminase wild type, Q9R2S1 (protein)
chain: MEIEQLIVEAKKARELAYVPYSKFPVGAALLTKGGSVYRGCNIENAAYSVCNCAERTALFKAYSEGEKEFTALAVIADTPRPVPPCGACRQVIAELCHGDMKVILANLKGDVKVMTVSELLPEAFSAEDLHA
unfolding free energy (Bacillus caldolyticus, pH 7, 25 °C, GdnHCl, CD, potassium phosphate 20 mM, reversible: no): 4.3 kcal/mol

B2: wild type, O66926 (protein)
chain: MKKFLIPFLTFLGFTFSSELIPCKVVRVVDGDTFRCVPEGKSRFIKVRLMGIDTLETNNMKKGMGQAKWFYGGIRTVKEFGKKAKEFSKRLIDKKVVYLELPVRKMDNNGRYLAYVWLDEYRNKMLNLLLVKEGLAFVFIIPPQVKYLKELGEAQEEAYKDRRGFWKYFKGE
denaturant m value [1]: 1.02 kcal/mol/M
denaturant midpoint (higher = more stable) [1]: 0.42 M
unfolding free energy [1]: 2.8 kcal/mol

B3: Seminal ribonuclease wild type, P00669 (protein)
chain: MALKSLVVLPLLVLVLLLVRVQPSLGKESAAAKFERQHMDSGNSPSSSSNYCNLMMCCRKMTQGKCKPVNTFVHESLADVKAVCSQKKVTCKNGQTNCYQSKSTMRITDCRETGSSKYPNCAYKTTQVEKHIIVACGGKPSVPVHFDASV
Tm [2]: 61.6 °C
unfolding enthalpy (van 't Hoff) [2]: 151 kcal/mol
Tm [3]: 65.2 °C
unfolding enthalpy (van 't Hoff) [3]: 199 kcal/mol

B4: Beta-glucanase wild type, P07980 (protein)
chain: MKRVLLILVTGLFMSLCGITSSVSAQTGGSFFEPFNSYNSGLWQKADGYSNGDMFNCTWRANNVSMTSLGEMRLALTSPSYNKFDCGENRSVQTYGYGLYEVRMKPAKNTGIVSSFFTYTGPTEGTPWDEIDIEFLGKDTTKVQFNYYTNGAGNHEKFADLGFDAANAYHTYAFDWQPNSIKWYVDGQLKHTATTQIPAAPGKIMMNLWNGTGVDDWLGSYNGVNPIYAHYDWMRYRKK
denaturant midpoint (higher = more stable) [4]: 2.73 M and 2.84 M
unfolding free energy [4]: 12.9 kcal/mol and 4.97 kcal/mol

B5: Cytidine deaminase wild type, P19079 (protein)
chain: MNRQELITEALKARDMAYAPYSKFQVGAALLTKDGKVYRGCNIENAAYSMCNCAERTALFKAVSEGDTEFQMLAVAADTPGPVSPCGACRQVISELCTKDVIVVLTNLQGQIKEMTVEELLPGAFSSEDLHDERKL
unfolding free energy (Bacillus subtilis (strain 168), pH 7, 25 °C, GdnHCl, CD, potassium phosphate 20 mM, reversible: no): 2.5 kcal/mol

B6: wild type, Q2XSL7 (protein)
chain: MKLIRLVISLIAVSFTVNVMAAPPSSFSKAKKEAVKIYLDYPTSFYCGCDITWKNKKKGIPELESCGYQVRKQEKRASRIEWEHVVPAWQFGHQRQCWQKGGRKNCTRNDKQFKSMEADLHNLVPAIGEVNGDRSNFRFSQWNGSKGAFYGQCAFKVDFKGRVAEPPAQSRGAIARTYLYMNNEYKFNLSKAQRQLMEAWNKQYPVSTWECTRDERIAKIQGNHNQFVYKACTK
Tm [5]: 41.8 °C
unfolding enthalpy (calorimetric) [5]: 64 kcal/mol
Tm [6]: 51.9 °C
unfolding enthalpy (calorimetric) [6]: 88.7 kcal/mol
Tm [7]: 41.8 °C
unfolding enthalpy (calorimetric) [7]: 64 kcal/mol
Tm [8]: 51.9 °C
unfolding enthalpy (calorimetric) [8]: 88.6 kcal/mol

B7: Barstar wild type, P11540 (protein)
chain: MKKAVINGEQIRSISDLHQTLKKELALPEYYGENLDALWDCLTGWVEYPLVLEWRQFEQSKQLTENGAESVLQVFREAKAEGCDITIILS
denaturant midpoint (higher = more stable) [9]: 1.92 M
unfolding free energy [9]: 4.6 kcal/mol
unfolding free energy (Bacillus amyloliquefaciens, pH 8, 10 °C, Urea, CD, Tris Cl 50 mM, KCl 100 mM): 3 kcal/mol
denaturant m value [10]: 1.25 kcal/mol/M
denaturant midpoint (higher = more stable) [10]: 3.87 M
unfolding free energy [10]: 4.84 kcal/mol
Tm [11]: 70 °C
heat capacity change of unfolding [11]: 1.49 kcal/mol/K
unfolding enthalpy (van 't Hoff) [11]: 69.7 kcal/mol
Tm [12]: 69.7 °C
heat capacity change of unfolding [12]: 1.41 kcal/mol/K
unfolding enthalpy (calorimetric) [12]: 42.6 kcal/mol
unfolding enthalpy (van 't Hoff) [12]: 60 kcal/mol
Tm [13]: 68.7 °C
heat capacity change of unfolding [13]: 1.36 kcal/mol/K
unfolding enthalpy (calorimetric) [13]: 41.2 kcal/mol
unfolding enthalpy (van 't Hoff) [13]: 56.1 kcal/mol

B8: 3-isopropylmalate dehydrogenase wild type, P05645 (protein)
chain: MKKRIALLPGDGIGPEVLESATDVLKSVAERFNHEFEFEYGLIGGAAIDEHHNPLPEETVAACKNADAILLGAVGGPKWDQNPSELRPEKGLLSIRKQLDLFANLRPVKVFESLSDASPLKKEYIDNVDFVIVRELTGGLYFGQPSKRYVNTEGEQEAVDTLFYKRTEIERVIREGFKMAAARKGKVTSVDKANVLESSRLWREVAEDVAQEFPDVKLEHMLVDNAAMQLIYAPNQFDVVVTENMFGDILSDEASMLTGSLGMLPSASLSSSGLHLFEPVHGSAPDIAGKGMANPFAAILSAAMLLRTSFGLEEEAKAVEDAVNKVLASGKRTRDLARSEEFSSTQAITEEVKAAIMSENTISNV
Tm (Bacillus subtilis (strain 168), pH 7.6, CD, Potassium phosphate 20 mM, reversible: yes): 56 °C

B9: FMN-dependent NADPH-azoreductase wild type, O07529 (protein)
chain: MNMLVINGTPRKHGRTRIAASYIAALYHTDLIDLSEFVLPVFNGEAEQSELLKVQELKQRVTKADAIVLLSPEYHSGMSGALKNALDFLSSEQFKYKPVALLAVAGGGKGGINALNNMRTVMRGVYANVIPKQLVLDPVHIDVENATVAENIKESIKELVEELSMFAKAGNPGV
Tm (Bacillus subtilis (strain 168), pH 7.5, CD, Tris-HCl 100 mM, reversible: No): 86.5 °C

From FireProtDB
